Test results: patent US20240252534A1 (AUTOLUS, published 2024)

Assays:
[1] = target: T1, human PSMA expressed on cells (human, UniProt Q04609 1-750); test: flow cytometry, MFI against concentration, SupT1-PSMA clone 30 (high)
T1 construct: whole, on cells; also called SupT1-PSMA; SupT1 cells expressing PSMA

[2] = target: T2, Recombinant PSMA-His (sino biologicals) (UniProt Q04609 44-750); test: SPR, Biacore T200; VHH-Fc captured on Protein A chip, PSMA-His as analyte, 1:1 Langmuir fit
T2 construct: also called soluble PSMA; recombinant soluble PSMA; not shown: His tag
Procedure: (§1) Kinetic affinity for soluble PSMA was determined using Biacore T200 instrument. Recombinant purified antibodies were captured on a Protein A chip #7 at 10 μl/min for 60 s, aiming at 100 RU. Recombinant PSMA-His (sino biologicals) dialysed in HBS-P+ buffer was used as analyte from 1 μM with 1:2 serial dilutions for 10 points and flown at 30 μl/min for 150 s with 300 s dissociation time. A double reference subtraction was applied. Sensograms fitted with 1:1 Langmuir model.
Affinity was determined by surface plasmon resonance on a Biacore T200 instrument against recombinant soluble PSMA. Affinities were measured in the nM range for both antibodies (Table 3)

[3] = target: T1, human PSMA expressed on cells; test: flow cytometry histograms, detection aMu-Fc 647, concentration and axis values not given
[4] = target: T2, Recombinant PSMA-His (sino biologicals); test: SPR, Biacore T200, pH 6.5; antibody captured on Protein A chip, PSMA-His as analyte, 1:1 Langmuir fit
Procedure: as §1, with “soluble PSMA at different pH was determined” for “soluble PSMA was determined”, “A chip #6, pre-equilibrated the required PH (pH7.4, pH7, pH6.5 and pH6) using buffered HBS-P+, at 10” for “A chip #7 at 10”, “dialysed in HBS-P+buffer and adjusted to the required PH was used” for “dialysed in HBS-P+ buffer was used”

[5] = target: T2, Recombinant PSMA-His (sino biologicals); test: SPR, Biacore T200, pH 6; antibody captured on Protein A chip, PSMA-His as analyte, 1:1 Langmuir fit
Procedure: as §1, with “soluble PSMA at different pH was determined” for “soluble PSMA was determined”, “A chip #6, pre-equilibrated the required PH (pH7.4, pH7, pH6.5 and pH6) using buffered HBS-P+, at 10” for “A chip #7 at 10”, “dialysed in HBS-P+buffer and adjusted to the required PH was used” for “dialysed in HBS-P+ buffer was used”

[6] = target: T2, Recombinant PSMA-His (sino biologicals); test: SPR, Biacore T200, pH 7; antibody captured on Protein A chip, PSMA-His as analyte, 1:1 Langmuir fit
Procedure: as §1, with “soluble PSMA at different pH was determined” for “soluble PSMA was determined”, “A chip #6, pre-equilibrated the required PH (pH7.4, pH7, pH6.5 and pH6) using buffered HBS-P+, at 10” for “A chip #7 at 10”, “dialysed in HBS-P+buffer and adjusted to the required PH was used” for “dialysed in HBS-P+ buffer was used”

[7] = target: T2, Recombinant PSMA-His (sino biologicals); test: SPR, Biacore T200, pH 7.4; antibody captured on Protein A chip, PSMA-His as analyte, 1:1 Langmuir fit
Procedure: as §1, with “soluble PSMA at different pH was determined” for “soluble PSMA was determined”, “A chip #6, pre-equilibrated the required PH (pH7.4, pH7, pH6.5 and pH6) using buffered HBS-P+, at 10” for “A chip #7 at 10”, “dialysed in HBS-P+buffer and adjusted to the required PH was used” for “dialysed in HBS-P+ buffer was used”

T1 sequence (Q04609 whole entry): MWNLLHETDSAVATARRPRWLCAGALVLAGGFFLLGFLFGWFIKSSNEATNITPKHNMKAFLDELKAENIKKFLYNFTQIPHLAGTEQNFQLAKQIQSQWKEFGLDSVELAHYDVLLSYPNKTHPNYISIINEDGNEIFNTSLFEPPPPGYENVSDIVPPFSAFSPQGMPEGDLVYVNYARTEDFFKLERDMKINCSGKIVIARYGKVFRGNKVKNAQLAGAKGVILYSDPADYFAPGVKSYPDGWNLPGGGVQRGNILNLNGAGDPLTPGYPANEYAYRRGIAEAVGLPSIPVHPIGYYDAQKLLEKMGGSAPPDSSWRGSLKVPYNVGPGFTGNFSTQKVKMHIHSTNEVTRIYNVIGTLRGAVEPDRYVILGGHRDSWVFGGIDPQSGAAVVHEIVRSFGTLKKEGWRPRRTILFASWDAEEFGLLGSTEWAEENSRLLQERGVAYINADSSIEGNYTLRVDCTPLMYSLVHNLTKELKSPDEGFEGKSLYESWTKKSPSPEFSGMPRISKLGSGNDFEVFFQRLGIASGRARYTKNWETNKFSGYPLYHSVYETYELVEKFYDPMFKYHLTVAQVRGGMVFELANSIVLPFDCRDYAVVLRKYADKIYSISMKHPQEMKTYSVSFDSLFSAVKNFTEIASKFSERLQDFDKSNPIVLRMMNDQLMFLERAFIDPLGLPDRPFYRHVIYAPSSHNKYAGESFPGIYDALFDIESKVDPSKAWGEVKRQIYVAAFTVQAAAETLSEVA
T2 sequence (Q04609 44-750 limits assumed): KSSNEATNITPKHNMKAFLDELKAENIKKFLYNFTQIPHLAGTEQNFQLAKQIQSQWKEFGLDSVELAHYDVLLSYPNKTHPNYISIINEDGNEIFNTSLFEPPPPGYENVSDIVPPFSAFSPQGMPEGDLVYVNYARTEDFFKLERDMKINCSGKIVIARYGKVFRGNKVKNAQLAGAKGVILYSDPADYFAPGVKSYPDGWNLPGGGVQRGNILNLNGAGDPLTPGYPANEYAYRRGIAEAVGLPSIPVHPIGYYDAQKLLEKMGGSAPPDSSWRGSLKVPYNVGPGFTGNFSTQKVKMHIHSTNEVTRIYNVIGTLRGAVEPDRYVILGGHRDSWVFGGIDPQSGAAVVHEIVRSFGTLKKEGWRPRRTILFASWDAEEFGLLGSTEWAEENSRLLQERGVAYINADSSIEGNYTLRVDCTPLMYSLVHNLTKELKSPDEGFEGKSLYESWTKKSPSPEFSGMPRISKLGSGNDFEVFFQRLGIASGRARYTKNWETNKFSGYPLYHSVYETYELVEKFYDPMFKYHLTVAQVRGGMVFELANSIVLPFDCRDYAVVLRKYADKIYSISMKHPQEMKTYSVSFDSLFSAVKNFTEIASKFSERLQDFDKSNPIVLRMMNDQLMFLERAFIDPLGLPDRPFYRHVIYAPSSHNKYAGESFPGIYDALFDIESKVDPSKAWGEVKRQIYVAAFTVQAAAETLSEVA

B1: dAb clone G7, C Myc tagged (VHH)
VHH: QVQLQESGGGSVQAGGSLRLSCAASERTFSTYGTGWFRQAPGKEREFVAGISGRGGYTSYIDSVKGRFTTSRDNAKNTVYLQMNSLKPEDTAVYYCAADRRMVWGTVRSPDEYDSWGQGTQVTVSS
notes: Monomeric dAb from IPTG-induced TG1 supernatant, detected with anti-C Myc; also called G07; not shown: C-Myc tag
[1]
  EC50 (read off the curve): ~0.7 µg/mL

B2: G07 VHH-Fc (Fc fusion)
chain: B1 VHH
notes: also called G7; clone G7; not shown: Fc part of the VHH-Fc format
[2]
  Kd: 316 nM

B3: dAb clone B8, C Myc tagged (VHH)
VHH: QVQLQQSGGGLVQAGGSLRLSCAASGRTYGRYVMGWFRQIPGKEREFVAAISWSGSNTNYADSVKGRFTISRDNAKNTLYLQMNSLKPEDTAVYYCAASGQWIIPTTARGYDDWGQGTQVTVSS
notes: Monomeric dAb from IPTG-induced TG1 supernatant, detected with anti-C Myc; also called B08; not shown: C-Myc tag
[1]
  EC50 (read off the curve): ~1 µg/mL

B4: B08 VHH-Fc (Fc fusion)
chain: B3 VHH
notes: also called B8; clone B8; not shown: Fc part of the VHH-Fc format
[2]
  Kd: 212 nM

B5: NGS2 dAb in murine IgG2A-Fc format (Fc fusion)
chain: QVQLQESGGGWVQAGGSLRLSCAASGRTSRTYTMGWFRQAPGKDGVFVAGITWSTWSSDKTQYLDSVNSRFTISRDNARNTVYLQMNNLKPEDTAVYYCAATPRYYGVAVPTTRGPYDYWGQGTQVTVSS
notes: also called clone 2; dAb 2; not shown: murine IgG2A Fc
[3]
  binding result: binds

B6: 7A12 humanised (antibody, V domains shown)
VH: QVQLVQSGAEVKKPGASVKVSCKASGYTFTSSWMNWVRQAPGQGLEWMGRIYPGDGDTNYAQKFQGRVTMTRDTSISTAYMELSRLRSDDTAVYYCARGTGYLWYFDVWGQGTMVTVSS
VL: EIVLTQSPATLSLSPGERATLSCRASQDINENLAWYQQKPGQAPRLLIYYTSNRATGIPARFSGSGSGRDFTLTISSLEPEDFAVYYCQQYDNLPFTFGQGTKVEIKR
notes: Tested as 'recombinant purified antibody' captured on a Protein A chip; also called hu7A12; AU number 42396
[4]
  Kd: 1.71 nM
[5]
  Kd: 0.532 nM
[6]
  Kd: 3.3 nM
[7]
  Kd: 3.66 nM

B7: 7A12 (antibody, V domains shown)
VH: QFQLQQSGPELVKPGASVKISCKASGYAFSSSWMNWVRQRPGKGLEWIGRIYPGDGDTTYNGNFKDKATLTAAKSSSTAYIQINSLTSEDSAVYFCARGTGYLWYFDVWGAGTTVTVSS
VL: DIQMTQSPSSLSTSLGGKVTITCKASQDINENVAWYQHKPGKGPRLLIWYTSALQSGIPSRFSGSGSGRDYSFSISNLEPEDIATYYCQQYDNLPFTFGSGTKLEIKR
notes: Tested as 'recombinant purified antibody' captured on a Protein A chip; also called mu7A12; AU number 30531
[4]
  Kd: 1.02 nM
[5]
  Kd: 0.574 nM
[6]
  Kd: 1.77 nM
[7]
  Kd: 2.29 nM
